According to doi:10.1101/219402 (bioRxiv, 2017):

Target: human CD3 on Jurkat cells (Homo sapiens (endogenous, Jurkat), UniProt P07766;P04234)
Assay: flow cytometry on cells

Sequence of human CD3 on Jurkat cells (P04234 whole entry, looked up, chain 1 of 2): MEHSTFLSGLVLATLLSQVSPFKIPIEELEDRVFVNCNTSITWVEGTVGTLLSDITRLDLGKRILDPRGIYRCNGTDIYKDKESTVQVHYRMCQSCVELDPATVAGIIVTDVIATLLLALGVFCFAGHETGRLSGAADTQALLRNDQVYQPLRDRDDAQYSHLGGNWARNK
Sequence of human CD3 on Jurkat cells (P07766 23-207, looked up, chain 2 of 2): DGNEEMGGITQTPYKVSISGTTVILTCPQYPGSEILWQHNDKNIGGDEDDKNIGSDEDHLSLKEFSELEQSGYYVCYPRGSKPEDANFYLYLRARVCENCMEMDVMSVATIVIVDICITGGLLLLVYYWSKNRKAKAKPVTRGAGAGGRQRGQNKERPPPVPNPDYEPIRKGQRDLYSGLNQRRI

B1: R11 scFv-Fc (homodimeric monospecific anti-ROR1 scFv-Fc) (Fc fusion)
VH: QSVKESEGDLVTPAGNLTLTCTASGSDINDYPISWVRQAPGKGLEWIGFINSGGSTWYASWVKGRFTISRTSTTVDLKMTSLTTDDTATYFCARGYSTYYGDFNIWGPGTLVTISS
VL: ELVMTQTPSSTSGAVGGTVTINCQASQSIDSNLAWFQQKPGQPPTLLIYRASNLASGVPSRFSGSRSGTEYTLTISGVQREDAATYYCLGGVGNVSYRTSFGGGTEVVVK
B1: no binding (tested: 5 μg/mL).
